One molecule from patent publication US11904004B2, “Anti-CD277 antibodies” (INSTITUT NATIONAL DE LA SANTE ET DE LA RECHERCHE MEDICALE …, priority 2010, dated 2024) can be followed below.

“And” between values parts separate entries of the source, which are not always exact repeats. Equal entries are not always repeated.

The test system of assay [1] is immature dendritic cells (iDC). Kind of assay: Apoptosis detection (Annexin V), survival of iDC. It is filed as cell-based, human. Conditions: plastic-coated mAb or GM-CSF, 72-h culture, representative value and range of five experiments, listed as anti-BT3 mAb. On the procedure:
(§1) Blood samples were obtained from 5 healthy volunteers enrolled among the staff members, after informed consent. Monocytes were separated from peripheral blood mononuclear cells, and isolated using the MACS CD14 isolation kit (Miltenyi Biotech, Auburn, Calif. USA). Monocytes were cultured for 5 days with 200 ng/ml of recombinant human GM-CSF and 10 ng/ml recombinant human IL-4 (Schering-Plough Research Institute). These cells were termed immature dendritic cells (iDC). To achieve the stimulation, monocytes and iDC were cultured with 10 ng/ml of LPS, ligand for TLR4, 30 μg/ml of 8848 (Sigma-Aldrich, Milano, Italy), ligand for TLR7/8 and with […] of poly (I:C) (Sigma-Aldrich), ligand for TLR3, and were harvested after 48 h. The cells were cultured in RPMI 1640 supplemented with 10% heat-inactivated FCS, 5 mM L-glutamine and 50 IU/ml penicillin-streptomycin (from here on referred to as complete medium).
Monocytes and iDC were cultured on plastic coated with anti-BT3 mAb (clone 20.1) or with isotype-matched irrelevant mAb. As control, the cells were stimulated with 20 ng/ml recombinant human GM-CSF (Schering-Plough Research Institute). After three days, cells were harvested, stained with Annexin V-FITC (Bender MedSystems, Wien, Austria) and analysed by flow cytometry.

The test system of the next assay is iDC. The assay can be described thus: Costimulatory molecules expression on iDC, flow cytometry. Type of assay: cell-based, human. Conditions: coated mAb. On the procedure:
as §1
Monocytes and iDCs before and after stimulation were analysed by imunofluorescence flow cytometry (FACScalibur Becton Dickinson, Milano, Italy) to verify their activation state. […]
In general terms: A flow cytometer gives signals particle by particle.

For another assay, the system named is primary AML blasts. The assay can be described thus: NSG mouse/human primary AML blasts xenograft model. Conditions: NSG mice, UPN09 blasts; 250 μg mAb with 15×10^6 Vγ9Vδ2 T cells i.v. twice a week, weeks 8 to 10 post-graft. Type of assay: in vivo. An excerpt: NOD-SCID common γ-chain knockout mice (NSG) were purchased from Charles River France or bred in-house and maintained under specific pathogen-free conditions. All animal procedures were in accordance with protocols approved by the local Committee for Animal Experiments. Healthy 6- to 8-weeks-old female mice (n=15) received an injection of 0.2×10^6 luciferase transduced-U937 cells on Day 0, as described^13, and were then randomly assigned in 5 groups to receive intravenous injections of post-expansion-purified Vγ9Vδ2 T cells on Day 1 (30×10^6, 98.8% CD3+TCRVδ2+; Unité de Thérapie Cellulaire et Génique de Nantes) alone or combined to anti-BTN3A 20.1 mAb (250 μg) on Day 2 and 6. Controls comprised NSG mice infused with PBS, or anti-BTN3A 20.1 mAb alone. Mice were imaged with a Photon Imager (Biospace Lab, Paris, France) at different days. For the Primary AML blasts model, NSG mice received sublethal irradiation (2 Gy). On the day after, they received 1×10^6 of CD3-depleted blasts (CD3 depletion Kit, Miltenyi Biotec) isolated from UPN09. […] The peripheral blood number of blasts was quantified during engraftment, before and after treatment by Flow Cytometry (supplementary data 1B). Mice were sacrificed at week 11th post-graft and the number of blasts was quantified in their Bone Marrow (BM).
On the technique in general: A xenograft is tissue or cells of one species grown in another, often human tumour cells in immunodeficient mice.

The next assay has as its system Vγ9/Vδ2 T cells. The assay can be described thus: Cytolytic function, cytokine production and proliferation of Vγ9/Vδ2 T cells. Type of assay: cell-based. An excerpt:
Typically the activation of the cytolytic function of Vγ9/Vδ2 T cells may be measured according to the method described in example 3 (i.e. “Analysis of Vγ9Vδ2 T cell responses by direct cytotoxicity assay”, and for example the results “CD277 potentiate the anti-tumor cytolysis mediated by Vγ9Vδ2 T cells”). Examples of isolated anti-CD277 antibodies, which activate the cytolytic function, cytokine production and proliferation of Vγ9/Vδ2 T cells, are mAbs 20.1 or 7.2, or derivatives thereof.
Target cells were labelled with 20 μCi of 51Cr (PerkinElmer) for 1 h at 37° C. After washing target cells were incubated with effectors Vγ9Vδ2 T cells for 4 h at 37° C. in different ratio. Incubations were performed in presence of specific or isotype control mAbs or Fab fragments. The radioactivity released by target cells was measured, 4 h later, on beta plate counter. The percentage of specific 51Cr lysis was calculated using the following equation: percent specific lysis=100×[(test release)−(spontaneous release)]/[(maximal release)−(spontaneous release)].

B1: mAb 20.1: murine anti-CD277 antibody obtainable from the hybridoma CNCM I-4402; agonist (antibody, V domains shown)
VH: QVQLQQSGAELVKPGASVKLSCKASGYTFTRYYLYWVKQRPGQGLEWIGEINPNNGGTKFNEKFKSKATLTVDKSSRTTYIQLSSLTSEDSAVYYCSREDDYDGTPDAMDYWGQGTAVTVSS
VL: DIQMNQSPSSLSASLGDTITITCHASQNINLWLSWYQQRPGNIPKLLIYRASNLHTGVPSRFSGSGSATGFTLTISSLQPEDIATYYCQQGHSYPYTFGGGTKLDIK
Consider B1, for which the “healthy-vital (surviving) iDC” value in assay [1] was 56.75% and 53.13-60.71%. Also, the “expression of CD80, CD86 and HLA-DR on iDC” value with iDC is recorded as “increased expression”. In addition, the “circulating blasts (Percentage of variation of the absolute number of blasts in blood before and 4 days after the end of treatment)” value in the assay on primary AML blasts was 37.38±39.89. Moreover, the “cytolytic function, cytokine production and proliferation of Vγ9/Vδ2 T cells” value in the assay on Vγ9/Vδ2 T cells was “activate”.
